Experimental data reported in patent US20140221282A1, “LONG DURATION DUAL HORMONE CONJUGATES” (priority 2011, published 2014).
Blank lines part the entries; values can stand above or below the binder they belong to. Ends that are not written are not given here. Y‑shaped mPEG40KD = Y-shaped methoxy-PEG of 40 kDa attached to the Lys side chain; mPEG40KD = methoxy-PEG of 40 kDa

Molecular target: amylin receptor of rat nucleus accumbens membranes (rat)
Assay: competition with 125I-rat amylin, rat nucleus accumbens membranes

amylin receptor of rat nucleus accumbens membranes (rat), sequence (P32214 other isoform, or with tags, fused parts or gaps, chain 1 of 2): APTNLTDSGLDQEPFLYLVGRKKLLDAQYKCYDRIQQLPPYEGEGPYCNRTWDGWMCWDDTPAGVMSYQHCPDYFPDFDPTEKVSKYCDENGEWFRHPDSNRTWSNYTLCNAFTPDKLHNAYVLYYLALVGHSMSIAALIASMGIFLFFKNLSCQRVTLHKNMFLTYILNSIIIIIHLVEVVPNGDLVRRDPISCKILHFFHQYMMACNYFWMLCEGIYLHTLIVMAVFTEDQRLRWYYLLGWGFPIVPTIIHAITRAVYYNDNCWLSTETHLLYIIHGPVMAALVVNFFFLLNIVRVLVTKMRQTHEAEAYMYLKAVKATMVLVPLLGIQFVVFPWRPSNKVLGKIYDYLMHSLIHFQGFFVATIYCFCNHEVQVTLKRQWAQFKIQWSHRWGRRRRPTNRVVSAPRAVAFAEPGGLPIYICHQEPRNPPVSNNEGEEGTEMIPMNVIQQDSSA
amylin receptor of rat nucleus accumbens membranes (rat), sequence (Q9JJ74 27-148, chain 2 of 2, further chain): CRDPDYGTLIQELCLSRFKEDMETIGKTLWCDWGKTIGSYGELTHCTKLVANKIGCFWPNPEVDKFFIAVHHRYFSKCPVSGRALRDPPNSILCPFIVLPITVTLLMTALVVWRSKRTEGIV

IC50: 78 nM
B1: mPEG40KD-Cmpd 50 (peptide)
peptide: mPEG40KD-CNTATCATQRLANFLVRSSNNLGPVLPPTNVGSNTY-NH2
modifications: ends and bridges not checked

IC50: 470 nM
B2: [K^26(Y-shaped-mPEG40KD)]-Cmpd 53 (peptide)
peptide: KCNTATCATQRLANFLVRSSNNLGPK(Y‑shaped mPEG40KD)LPPTNVGSNTY-NH2
modifications: ends and bridges not checked

IC50: 66 nM
B3: [K^26(mPEG40KD)]-Cmpd 53 (peptide)
peptide: KCNTATCATQRLANFLVRSSNNLGPK(mPEG40KD)LPPTNVGSNTY-NH2
modifications: ends and bridges not checked

IC50: 0.42 nM
B4: [des-Lys^1]-Cmpd 49 (peptide)
peptide: CNTATCATQRLANFLVRSSNNLGPVLPPTNVGSNTY-NH2
modifications: ends and bridges not checked
